The target in experiment [1] is RSV A + RSV B bivalent composition (RSV subtype A; RSV subtype B). In words: AM14 Fab titration by SEC; Low-Fast cycle; T0 (second value). On the technique in general: SEC sorts molecules by how far they enter the pores of the column.
Experiment [2] has the same target. In words: AM14 Fab titration by SEC; High-Slow 1 cycle; 1 M 2-8°C.
The target is the same in experiment [3]. In words: AM14 Fab titration by SEC; Low-Fast cycle; 1 M 25°C.
Experiment [4] shares this target. In words: AM14 Fab titration by SEC; composition of Table 14; Freezing Ramp Aggressive cycle.
Experiment [5] has the same target. In words: AM14 Fab titration by SEC; High-Slow 2 cycle; 8 M 25°C.
Experiment [6] has the same target. In words: AM14 Fab titration by SEC; High-Slow 2 cycle; 1 M 2-8°C (second value).
The target is the same in experiment [7]. In words: AM14 Fab titration by SEC; Low-Fast cycle; 1 M 25°C (second value).
The target in experiment [8] is T1, RSV F protein of subtype A comprising a polypeptide of SEQ ID NO: 1 and a polypeptide of SEQ ID NO: 2 (RSV subtype A, UniProt P11209 137-513; P03420 26-109).
T1 construct: Stabilized prefusion F trimer made of three F2-F1 heterodimers; Produced recombinantly in CHO cells; also called RSV A; RSVA
T1 chain 1: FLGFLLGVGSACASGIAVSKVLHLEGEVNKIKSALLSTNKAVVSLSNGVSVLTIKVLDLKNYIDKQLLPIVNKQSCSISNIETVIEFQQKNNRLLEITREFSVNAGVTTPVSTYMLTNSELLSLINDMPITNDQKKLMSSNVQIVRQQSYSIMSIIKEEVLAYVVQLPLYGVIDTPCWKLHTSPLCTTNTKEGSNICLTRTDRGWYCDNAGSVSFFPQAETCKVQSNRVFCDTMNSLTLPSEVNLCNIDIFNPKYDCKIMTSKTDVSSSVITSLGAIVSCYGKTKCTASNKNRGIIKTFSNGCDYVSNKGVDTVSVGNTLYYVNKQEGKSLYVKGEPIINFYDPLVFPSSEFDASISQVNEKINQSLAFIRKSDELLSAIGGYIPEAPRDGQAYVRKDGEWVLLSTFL
T1 chain 2: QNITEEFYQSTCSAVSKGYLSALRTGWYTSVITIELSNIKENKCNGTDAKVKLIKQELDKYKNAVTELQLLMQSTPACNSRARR
In words: AM14 ELISA; F7 (pH 6, 100 mM NaCl, 0% sucrose); 1 wk 5°C.

Experiment [9] concerns the target T1, RSV F protein of subtype A comprising a …. In words: AM14 ELISA; F9 (pH 8, 50 mM NaCl, 4.5% sucrose); 1 wk 25°C.
The target is the same in experiment [10]. In words: AM14 ELISA; F2 (pH 8, 0 mM NaCl, 0% sucrose); T0.
For experiment [11] the target is unchanged. In words: AM14 ELISA; F4 (pH 6, 50 mM NaCl, 4.5% sucrose); 1 wk 25°C. (ELISA stands for enzyme-linked immunosorbent assay.)
Experiment [12] shares this target. In words: AM14 ELISA; F14 (pH 7, 50 mM NaCl, 4.5% sucrose); 1 wk 5°C.
The target is the same in experiment [13]. In words: AM14 ELISA; F12 (pH 8, 100 mM NaCl, 9.0% sucrose); T0.
For experiment [14] the target is unchanged. In words: AM14 ELISA; F16 (pH 6, 0 mM NaCl, 0% sucrose); 1 wk 25°C.
The target is the same in experiment [15]. In words: AM14 ELISA; F7 (pH 6, 100 mM NaCl, 0% sucrose); T0.
Experiment [16] has the same target. In words: AM14 ELISA; F13 (pH 7, 100 mM NaCl, 4.5% sucrose); 1 wk 5°C.
For experiment [17] the target is unchanged. In words: AM14 ELISA; F6 (pH 7, 0 mM NaCl, 4.5% sucrose); T0.

The record followed here is patent US20260097113A1 (Pfizer, published 2026).

As for AM14 Fab, the Prefusion Content (%) in experiment [1] amounted to 82%; in [2], 52%; in [3], 63%; in experiment [4] it was 62%; in experiment [5], 71%; in [6], 65%. In addition, the Prefusion Content (%) in experiment [7] came out at 71%.

B1: AM14 (trimeric prefusion specific antibody of the AM14 ELISA) (antibody, V domains shown)
VH: EVQLVESGGGVVQPGRSLRLSCAASGFSFSHYAMHWVRQAPGKGLEWVAVISYDGENTYYADSVKGRFSISRDNSKNTVSLQMNSLRPEDTALYYCARDRIVDDYYYYGMDVWGQGATVTVSS
VL: DIQMTQSPSSLSASVGDRVTITCQASQDIKKYLNWYHQKPGKVPELLMHDASNLETGVPSRFSGRGSGTDFTLTISSLQPEDIGTYYCQQYDNLPPLTFGGGTKVEIKR
notes: Antibody as used in the AM14 ELISA, detected with an HRP-labeled secondary antibody
In the case of B1, the “AM14 prefusion content (%), relative to standard” value in experiment [8] is 61%; in experiment [9], 84%; in experiment [10], 86%; in experiment [11], 59%; in experiment [12], 85%; in [13], 100%. Also, the “AM14 prefusion content (%), relative to standard” value in experiment [14] was 87%; in experiment [15] it was 88%; in [16] it was 76%; in experiment [17], 99%.
